The record followed here is the RNAGym collection of RNA variant scans (doi:10.1093/nar/gkz1192).

To fix the notation:
B1: CPEB3 Ribozyme (parent)
chain: UAACAGGGGGCCACAGCAGAAGCGUUCACGUCGCAGCCCCUGUCAGAUUCUGGUGAAUCUGCGAAUUCUGCUGUAUAUCUC

In the data set the parent is B1. The data set can be described thus: self-cleavage, relative activity (ratio to wild type); higher = more cleavage; in vitro, sequencing. In outline: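 For each CPEB3 ribozyme variant, relative activity is its cleaved/total read fraction divided by the unmutated ribozyme's. Barcoded error-prone PCR libraries were transcribed by T7 RNA polymerase (5 hours, 37°C) and held in DNase I for 15 min before an EDTA stop, with cleavage occurring throughout. Template-switching reverse transcription and Illumina sequencing were used to read the RNAs. A 5-read minimum applied, and results are the mean of three batches.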
With A21G U78C, the self-cleavage came to 0.58. The figure for A21G U78A is 0.53; for A21U A77G it is 0.37. The figure for G22A U31A is 0.34; for G22A U48A it is 0.07; for G22A U48G it is 0.32. The value for G22A U48C was 0.19.

A21G A64G: the self-cleavage came out at 0.42. Consider A21G A64C, for which the self-cleavage is 0.37. In the case of A21G A64U, the self-cleavage amounted to 0.26. A21G C23G: the self-cleavage worked out at 0.37.

In the case of A21G C23U, the self-cleavage was 0.2. A21G C23A: the self-cleavage amounted to 0.32. The figure for G22U A64G is 0.36. The figure for G22A G63A is 0.27.

G22C U72C: the self-cleavage came to 0.2.

For G22A U49C, the self-cleavage was found to be 0.11. The figure for A21U G73A is 0.88. The figure for A21G U48A is 0.35; for A21G U48C it is 0.3; for A21G U48G it is 0.34.

As for A21G U54C, the self-cleavage amounted to 0.53. The figure for A21G U54G is 0.4.

Take A21G U54A: the self-cleavage stood at 0.71.

Turning to A21U U72G, the self-cleavage is 0.17.

Turning to A21U U72C, the self-cleavage came to 0.53. The figure for A21U U72A is 0.26; for G22U U25C it is 0.2; for G22A U80C it is 0.5. The figure for A21G U49C is 0.27; for A21G U49A it is 0.48; for A21G U49G it is 0.23. The value for G22A C68G was 0.11. Take G22A A77U: the self-cleavage amounted to 0.1. The figure for G22U is 0.27; for G22C it is 0.26. G22A: the self-cleavage was found to be 0.29.

For the variant G22A A45G, the self-cleavage amounted to 0.14. The figure for G22A A45U is 0.11; for G22A U74C it is 0.5; for G22C A75G it is 0.13. The value for G22C A75U was 0.24; that for G22A U76C was 0.25; that for A21G G73A was 1.21. For G22U U60A, the self-cleavage was 0.17. G22U U60C: the self-cleavage was found to be 0.07. The value for G22A A64G was 0.24. The value for G22A A64U was 0.32; that for G22U U67C was 0.06; that for A21G C71U was 0.32. The value for A21G C71A was 0.07. As for G22U G46A, the self-cleavage came to 0.17.

With G22C U67C, the self-cleavage came out at 0.11. The figure for G22C U67A is 0.16; for A21U A45G it is 0.29; for A21U A45U it is 0.17.

As for A21U A45C, the self-cleavage came out at 0.1. The value for A21G U74C was 0.96; that for A21G U74A was 1.03; that for A21U U54C was 0.29.

As to A21U U54G, the self-cleavage was determined as 0.26.

Turning to A21U U54A, the self-cleavage is 0.29. Regarding G22C G55U, the self-cleavage came out at 0.22. The value for A21G C29U was 0.28; that for G22A U60A was 0.08; that for G22A U60C was 0.28. The figure for G22A U25A is 0.18; for A21U A28U it is 0.23; for A21U A28C it is 0.15. The value for A21U A28G was 0.22; that for A21G U41G was 0.29.

Consider A21G U41C, for which the self-cleavage was 0.66.

Take A21G U41A: the self-cleavage was determined as 0.3. The figure for G22U A28U is 0.17; for G22U A28G it is 0.17; for A21G A65C it is 0.12. The value for A21G A65G was 0.28; that for A21G A65U was 0.24. The figure for A21G C62A is 0.2. On to A21G C62U, for which the self-cleavage was found to be 0.19. The figure for A21G C62G is 0.22; for A21U U41C it is 0.34; for A21U U41A it is 0.26. Consider A21U A64U, for which the self-cleavage was 0.13.

Consider A21U A64G, for which the self-cleavage amounted to 0.18. On to A21U C71G, for which the self-cleavage was 0.09. For A21U C71U, the self-cleavage was determined as 0.16.

For A21U C29U, the self-cleavage stood at 0.3. As for A21U C29A, the self-cleavage turned out to be 0.21. The figure for G22A U41C is 0.37; for G22A U41A it is 0.19. The figure for A21G C50A is 0.57; for A21G C50U it is 0.62. The value for G22U A45G was 0.22; that for G22C U25C was 0.45; that for G22U U66G was 0.17. As to G22U U66C, the self-cleavage came to 0.52.

As for G22A A35U, the self-cleavage is 0.19. The value for G22A A35G was 0.68; that for A21U G30A was 0.1.

Regarding G22U A75G, the self-cleavage was 0.39.

Consider G22U A75C, for which the self-cleavage is 0.23. Turning to G22U A75U, the self-cleavage stood at 0.26. In the case of A21G C68A, the self-cleavage was found to be 0.17. The figure for A21G C68G is 0.2; for A21G C68U it is 0.43; for G22U A35U it is 0.09.

For the variant A21U U26C, the self-cleavage was determined as 0.29. The figure for A21U U26A is 0.35; for A21U U69C it is 0.26. The value for A21U G52A was 0.33. As to G22A C38U, the self-cleavage was determined as 0.17.

For A21G C39G, the self-cleavage was determined as 0.37.

On to A21G C39U, for which the self-cleavage came to 0.3.

A21G C39A: the self-cleavage is 0.1. Consider A21G C32A, for which the self-cleavage worked out at 0.23.

In the case of A21G C32U, the self-cleavage came out at 0.22. The value for A21G C32G was 0.23; that for A21U C32A was 0.14; that for G22C G52C was 0.2. In the case of G22A U69A, the self-cleavage was 0.24. Take G22A U69G: the self-cleavage was 0.06.

With A21U C62U, the self-cleavage is 0.01. The value for A21U U43C was 0.26. The value for A21U U43A was 0.5.

For the variant A21G G53A, the self-cleavage was 0.58.

G22U U31A: the self-cleavage was determined as 0.32.

For G22U U31C, the self-cleavage came to 0.11. As for G22C G53C, the self-cleavage worked out at 0.07. The value for G22C U69C was 0.15; that for G22C U74G was 0.19; that for A21G G55A was 0.42. The value for A21G G55U was 0.57; that for G22C A64U was 0.16; that for G22C A64G was 0.24. As to A21G G33A, the self-cleavage was 0.33. The value for A21G G33C was 0.14; that for A21G G33U was 0.19. Consider G22A C37A, for which the self-cleavage worked out at 0.09. Consider A21G U51A, for which the self-cleavage was determined as 0.64. The value for A21G U51G was 0.72. The figure for A21G U51C is 0.6; for G22A U26A it is 0.38; for G22A U26C it is 0.19. A21U U51C: the self-cleavage was found to be 0.34. The figure for A21U U51A is 0.43; for A21U U48C it is 0.27; for A21G C34G it is 0.2. As to A21U U31C, the self-cleavage is 0.3.

On to A21U U31A, for which the self-cleavage came to 0.13. The figure for A21U U31G is 0.13; for A21U A57G it is 0.33. The value for A21G U25C was 0.29; that for A21G U25G was 0.34. The value for A21G U25A was 0.24; that for A21U U74A was 0.76; that for A21U U74C was 0.76. Regarding G22U G61C, the self-cleavage was found to be 0.14. The value for G22C A57G was 0.32; that for G22A U78C was 0.19; that for G22A A65G was 0.23. On to G22A A65U, for which the self-cleavage worked out at 0.08. The figure for A21U C50U is 0.4. For the variant A21U C50A, the self-cleavage is 0.18. For the variant A21U G63C, the self-cleavage worked out at 0.28. The value for A21U G63U was 0.28; that for A21U G63A was 0.5.
